The values that follow come from patent EP4793288A1 (Imbiologics Corp., dated 2025).

For orientation: Kd means the constant that tells how readily two partners part at equilibrium. Broadly, the koff is the rate constant with which the complex falls apart.

For assay [1], the target named is T1, HLA-G expressed on the cell surface (human, UniProt P17693 25-338). Put plainly: cell-based or functional assay.
Assay [2] concerns the target T2, Recombinant HLA-G antigen (human, UniProt P17693 25-308, limits assumed).
T2 construct: also called recombinant HLA-G protein
As to the kind of experiment: BLI (Octet), antibody on anti-human IgG Fc capture biosensor, HLA-G antigen 100 to 1.56 nM.

The target in a further assay is B2M (UniProt P61769 21-119). Put plainly: ELISA. For orientation: An ELISA detects its analyte on a solid surface through an enzyme-linked reagent.
Chain of B2M (P61769 21-119 limits assumed): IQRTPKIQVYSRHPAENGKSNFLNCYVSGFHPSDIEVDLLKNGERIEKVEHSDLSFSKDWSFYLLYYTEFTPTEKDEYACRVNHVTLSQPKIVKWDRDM
In assay [3] the target is T1, HLA-G expressed on the cell surface. Put plainly: flow cytometry on JEG-3 and SCH cells naturally expressing HLA-G, anti-human IgG PE. In general terms: Flow cytometry measures light scatter and fluorescence of single cells or particles in a stream.

B1: Afucosylated positive control antibody (antibody, human IgG1, kappa, V domains shown)
VH: QLQLQESGPGLVKPSETLSLTCTVSGGSISSSSTYWSWIRQPPGKGLEWIGGIAYSGSTYYNPSLKSRVTISVDTSKNQFSLKLSSVTAADTAVYYCARGVRRAVPEDYWGQGTLVTVSS
VL: EIVLTQSPGTLSLSPGERATLSCQASQAVSSNYLAWYQQKPGQAPRLLIYGASSRATGIPDRFSGSGSGTDFTLTISRLEPEDFAVYYCQQVVHSPYTFGGGTKVEIKR
modifications: afucosylated glycan
On to B1, for which the “EC50 (nM), ADCC reporter assay on SKOV-3/HLA-G cells, afucosylated antibody” value (from here on “EC50 (nM) … afucosylated antibody”) in assay [1] turned out to be 0.13 nM.

B2: Positive control antibody (antibody, human IgG1, kappa, V domains shown)
VH: QLQLQESGPGLVKPSETLSLTCTVSGGSISSSSTYWSWIRQPPGKGLEWIGGIAYSGSTYYNPSLKSRVTISVDTSKNQFSLKLSSVTAADTAVYYCARGVRRAVPEDYWGQGTLVTVSS
VL: EIVLTQSPGTLSLSPGERATLSCQASQAVSSNYLAWYQQKPGQAPRLLIYGASSRATGIPDRFSGSGSGTDFTLTISRLEPEDFAVYYCQQVVHSPYTFGGGTKVEIKR
In the case of B2, in assay [2], the Kd is 1.36 nM and the koff was found to be 0.000157 s⁻¹. In addition, the “EC50 (nM), ADCC reporter assay on SKOV-3/HLA-G cells” value in assay [1] stood at 1.59 nM.

B3: T22A4 (antibody, human IgG1, kappa, V domains shown)
VH: EVQLVESGGNWVQPGGSLRLSCAASGFSFRSYAMSWVRQAPGKGLEWVSSISGSGNSELYAGSVKGRFTISRDNSKNTLSLQLHSLRAEDTAMYYCAKFSAAVGFLPDYFDSWGQGTLVTVSS
VL: ELTLTQSPSSLSASVGDRVTITCQASHDISKYLNWYQQKSGKAPKLLIYDASNLETGVPSRFSGSGSGTDFTLTISSLQPEDFATYYCQQSYRTPLTFGGGTKLEIKR
With B3, the binding result with B2M was “no binding”.

B4: T23D5 (antibody, human IgG1, kappa, V domains shown)
VH: QVQLQESGPGLVKPSETLSLTCTVSGGSIDRSSHYWGWIRQPPGKGLEWLGSIYYSGITYYNPSLKSRVTISVDTSRNQFSLTLSSVTAADTAVYYCARHGSYDSWAGRYKWDRFDPWGQGTPVTVSS
VL: ELQMTQSPSSLSASVGDRVTITCQASHDISKYLNWYQQKSGKAPKLLIYDASNLETGVPSRFSGSGSGTDFTLTISSLQPEDFATYYCQQSYSTPLTFGGGTKVEIKR
Consider B4, for which, in the assay with B2M, the binding result is given as “no binding”.

B5: 2F1CDRH3#10 (antibody, human IgG1, kappa, V domains shown)
VH: EVQLVESGGGLVQPGGSLRLSCAASGFTFSSYAMSWVRQAPGKGLEWVSRISGSGGYKYYADSVKGRFTISRDNSKNTLYLQMNSLRAEDTAVYYCAKEGTSSYRGWMDVWGQGTLVTVSS
VL: IQMTQSPSSLSASVGDRVTITCRASQSISNYLNWYQQKPGKAPKLLIYATSTLQSGVPSRFSGSGSGTDFTLTISSLQPEDFATYYCQQSYTTPWTFGQGTKVEIKR
For the molecule B5, in assay [1], the “EC50 (nM), ADCC reporter assay on SKOV-3/HLA-G cells” value came to 0.08 nM. Also, in the assay with B2M, the binding result is “no binding”. Further, the “fold HLA-G binding activity against the positive control antibody” value (from here on “fold HLA-G binding activity”) in assay [3] was ≥ 3 fold.

B6: 2F1_LS#26 (antibody, human IgG1, kappa, V domains shown)
VH: EVQLVESGGGLVQPGGSLRLSCAASGFTFSSYAMSWVRQAPGKGLEWVSRISGSGGYIYYADSVKGRFTISRDNSKNTLYLQMNSLRAEDTAVYYCAKEGTSSYRGWMDVWGQGTLVTVSS
VL: DIQMTQSPSSLSASVGDRVTITCRASQSISNYLNWYQQKPGKAPKLLIYATSRLQSGVPSRFSGSGSGTDFTLTISSLQPEDFATYYCQQSYSFPWTFGQGTKVEIKR
For the molecule B6, in assay [2], the Kd was 0.698 nM and the koff came out at 2.82e-05 s⁻¹. In addition, the binding result in the assay with B2M was “no binding”.

B7: Afucosylated 2F1CDRH3#26 (antibody, human IgG1, kappa, V domains shown)
VH: EVQLVESGGGLVQPGGSLRLSCAASGFTFSSYAMSWVRQAPGKGLEWVSRISGSGSYTYYADSVKGRFTISRDNSKNTLYLQMNSLRAEDTAVYYCAKEGASSYRGWMDVWGQGTLVTVSS
VL: DIQMTQSPSSLSASVGDRVTITCRASQSISNYLNWYQQKPGKAPKLLIYATSRLQSGVPSRFSGSGSGTDFTLTISSLQPEDFATYYCQQSHSTPWTFGQGTKVEIKR
modifications: afucosylated glycan (antibody produced with 400 µM 2-deoxy-2-fluoro-L-fucose in the medium)
Turning to B7, in assay [1], the “EC50 (nM) … afucosylated antibody” value was determined as 0.02 nM.

B8: Afucosylated 2F1CDRH3#17 (antibody, human IgG1, kappa, V domains shown)
VH: EVQLVESGGGLVQPGGSLRLSCAASGFTFSDYAMSWVRQAPGKGLEWVSRISGTGSYKYYADSVKGRFTISRDNSKNTLYLQMNSLRAEDTAVYYCAKEGTSTYRGWMDVWGQGTLVTVSS
VL: DIQMTQSPSSLSASVGDRVTITCRASQSISNYLNWYQQKPGKAPKLLIYATSRLQSGVPSRFSGSGSGTDFTLTISSLQPEDFATYYCQQSYTTPWTFGQGTKVEIKR
modifications: afucosylated glycan (antibody produced with 400 µM 2-deoxy-2-fluoro-L-fucose in the medium)
As to B8, the “EC50 (nM) … afucosylated antibody” value in assay [1] is 0.01 nM.

B9: Afucosylated 2F1CDRH3#16 (antibody, human IgG1, kappa, V domains shown)
VH: EVQLVESGGGLVQPGGSLRLSCAASGFTFSDYAMSWVRQAPGKGLEWVSRISSSGSYTYYADSVKGRFTISRDNSKNTLYLQMNSLRAEDTAVYYCAKEGTSKYRGWMDVWGQGTLVTVSS
VL: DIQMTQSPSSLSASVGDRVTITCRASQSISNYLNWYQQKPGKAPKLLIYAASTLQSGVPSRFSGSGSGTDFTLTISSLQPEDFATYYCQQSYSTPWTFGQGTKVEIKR
modifications: afucosylated glycan (antibody produced with 400 µM 2-deoxy-2-fluoro-L-fucose in the medium)
Consider B9, for which the “EC50 (nM) … afucosylated antibody” value in assay [1] was determined as 0.02 nM.

B10: Afucosylated 2F1HS6LS#38 (antibody, V domains shown)
VH: EVQLVESGGGLVQPGGSLRLSCAASGFTFSDYAMSWVRQAPGKGLEWVSRISQSGSYTYYADSVKGRFTISRDNSKNTLYLQMNSLRAEDTAVYYCAKEGTSSYRGWMDVWGQGTLVTVSS
VL: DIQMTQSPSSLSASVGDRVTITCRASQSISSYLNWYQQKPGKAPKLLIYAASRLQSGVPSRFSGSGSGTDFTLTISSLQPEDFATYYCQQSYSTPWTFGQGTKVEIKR
modifications: afucosylated glycan (antibody produced with 400 µM 2-deoxy-2-fluoro-L-fucose in the medium)
As to B10, the “EC50 (nM) … afucosylated antibody” value in assay [1] came out at 0.07 nM.

B11: Afucosylated 2F1CDRH3#10 (antibody, human IgG1, kappa, V domains shown)
VH: EVQLVESGGGLVQPGGSLRLSCAASGFTFSSYAMSWVRQAPGKGLEWVSRISGSGGYKYYADSVKGRFTISRDNSKNTLYLQMNSLRAEDTAVYYCAKEGTSSYRGWMDVWGQGTLVTVSS
VL: IQMTQSPSSLSASVGDRVTITCRASQSISNYLNWYQQKPGKAPKLLIYATSTLQSGVPSRFSGSGSGTDFTLTISSLQPEDFATYYCQQSYTTPWTFGQGTKVEIKR
modifications: afucosylated glycan (antibody produced with 400 µM 2-deoxy-2-fluoro-L-fucose in the medium)
Consider B11, for which the “EC50 (nM) … afucosylated antibody” value in assay [1] came to 0.01 nM.

B12: Afucosylated 2F1HS6LS#46 (antibody, human IgG1, kappa, V domains shown)
VH: EVQLVESGGGLVQPGGSLRLSCAASGFTFSDYAMSWVRQAPGKGLEWVSRISQSGSYTYYADSVKGRFTISRDNSKNTLYLQMNSLRAEDTAVYYCAKEGTSSYRGWMDVWGQGTLVTVSS
VL: DIQMTQSPSSLSASVGDRVTITCRASQSISNWLNWYQQKPGKAPKLLIYATSRLQSGVPSRFSGSGSGTDFTLTISSLQPEDFATYYCQQSYSTPWTFGQGTKVEIKR
modifications: afucosylated glycan (antibody produced with 400 µM 2-deoxy-2-fluoro-L-fucose in the medium)
Consider B12, for which the “EC50 (nM) … afucosylated antibody” value in assay [1] was determined as 0.02 nM.

B13: 2F1CDRH3#16 (antibody, human IgG1, kappa, V domains shown)
VH: EVQLVESGGGLVQPGGSLRLSCAASGFTFSDYAMSWVRQAPGKGLEWVSRISSSGSYTYYADSVKGRFTISRDNSKNTLYLQMNSLRAEDTAVYYCAKEGTSKYRGWMDVWGQGTLVTVSS
VL: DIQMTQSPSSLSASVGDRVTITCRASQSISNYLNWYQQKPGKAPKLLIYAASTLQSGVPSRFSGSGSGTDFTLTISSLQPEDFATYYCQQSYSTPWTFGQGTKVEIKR
As for B13, the “EC50 (nM), ADCC reporter assay on SKOV-3/HLA-G cells” value in assay [1] was 0.17 nM. In the assay with B2M, the binding result is listed as “no binding”. For the same molecule, in assay [3], the “fold HLA-G binding activity” value is ≥ 3 fold.

B14: 2F1_LS#24 (antibody, human IgG1, kappa, V domains shown)
VH: EVQLVESGGGLVQPGGSLRLSCAASGFTFSSYAMSWVRQAPGKGLEWVSRISGSGGYIYYADSVKGRFTISRDNSKNTLYLQMNSLRAEDTAVYYCAKEGTSSYRGWMDVWGQGTLVTVSS
VL: DIQMTQSPSSLSASVGDRVTITCRASQSISNWLNWYQQKPGKAPKLLIYAASRLQSGVPSRFSGSGSGTDFTLTISSLQPEDFATYYCQQSYTSPWTFGQGTKVEIKR
For B14, in assay [2], the Kd is 0.553 nM and the koff came to 0.00012 s⁻¹. For the same molecule, the binding result with B2M is “no binding”.

B15: 2F1CDRH3#26 (antibody, human IgG1, kappa, V domains shown)
VH: EVQLVESGGGLVQPGGSLRLSCAASGFTFSSYAMSWVRQAPGKGLEWVSRISGSGSYTYYADSVKGRFTISRDNSKNTLYLQMNSLRAEDTAVYYCAKEGASSYRGWMDVWGQGTLVTVSS
VL: DIQMTQSPSSLSASVGDRVTITCRASQSISNYLNWYQQKPGKAPKLLIYATSRLQSGVPSRFSGSGSGTDFTLTISSLQPEDFATYYCQQSHSTPWTFGQGTKVEIKR
Take B15: in assay [1], the “EC50 (nM), ADCC reporter assay on SKOV-3/HLA-G cells” value came to 0.1 nM. Moreover, the binding result with B2M is given as “no binding”. Besides, the “fold HLA-G binding activity” value in assay [3] is ≥ 3 fold.

B16: 2F1_LS#39 (antibody, human IgG1, kappa, V domains shown)
VH: EVQLVESGGGLVQPGGSLRLSCAASGFTFSSYAMSWVRQAPGKGLEWVSRISGSGGYIYYADSVKGRFTISRDNSKNTLYLQMNSLRAEDTAVYYCAKEGTSSYRGWMDVWGQGTLVTVSS
VL: DIQMTQSPSSLSASVGDRVTITCRASQSISRYLNWYQQKPGKAPKLLIYATSNLHSGVPSRFSGSGSGTDFTLTISSLQPEDFATYYCQQSYTSPWTFGQGTKVEIKR
For B16, in assay [2], the Kd amounted to 0.567 nM and the koff was found to be 0.000106 s⁻¹. Moreover, the binding result with B2M is listed as “no binding”.

B17: 2F1_LS#17 (antibody, human IgG1, kappa, V domains shown)
VH: EVQLVESGGGLVQPGGSLRLSCAASGFTFSSYAMSWVRQAPGKGLEWVSRISGSGGYIYYADSVKGRFTISRDNSKNTLYLQMNSLRAEDTAVYYCAKEGTSSYRGWMDVWGQGTLVTVSS
VL: DIQMTQSPSSLSASVGDRVTITCRASQSISNYLNWYQQKPGKAPKLLIYAASRLQSDVPSRFSGSGSGTDFTLTISSLQPEDFATYYCQQSYSTPWTFGQGTKVEIKR
B17: in assay [2], the Kd stood at 0.689 nM and the koff was 0.000138 s⁻¹. For the same molecule, the binding result in the assay with B2M is “no binding”.

B18: 2F1CDRH3#17 (antibody, human IgG1, kappa, V domains shown)
VH: EVQLVESGGGLVQPGGSLRLSCAASGFTFSDYAMSWVRQAPGKGLEWVSRISGTGSYKYYADSVKGRFTISRDNSKNTLYLQMNSLRAEDTAVYYCAKEGTSTYRGWMDVWGQGTLVTVSS
VL: DIQMTQSPSSLSASVGDRVTITCRASQSISNYLNWYQQKPGKAPKLLIYATSRLQSGVPSRFSGSGSGTDFTLTISSLQPEDFATYYCQQSYTTPWTFGQGTKVEIKR
As for B18, the “EC50 (nM), ADCC reporter assay on SKOV-3/HLA-G cells” value in assay [1] came to 0.07 nM. The binding result in the assay with B2M is recorded as “no binding”. Besides, the “fold HLA-G binding activity” value in assay [3] is ≥ 3 fold.

B19: 2F1 (antibody, human IgG1, kappa, V domains shown)
VH: EVQLVESGGGLVQPGGSLRLSCAASGFTFSSYAMSWVRQAPGKGLEWVSRISGSGGYIYYADSVKGRFTISRDNSKNTLYLQMNSLRAEDTAVYYCAKEGTSSYRGWMDVWGQGTLVTVSS
VL: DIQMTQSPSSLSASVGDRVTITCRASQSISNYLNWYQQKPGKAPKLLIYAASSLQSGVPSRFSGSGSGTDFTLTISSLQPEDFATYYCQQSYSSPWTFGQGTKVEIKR
notes: produced in Expi293F cells
As for B19, in assay [2], the Kd turned out to be 0.523 nM and the koff was 0.00013 s⁻¹. For the same molecule, the binding result with B2M is recorded as “no binding”.
